According to patent publication US20200392472:

System: T1, GeoCas9 (Geobacillus stearothermophilus)
T1 sequence: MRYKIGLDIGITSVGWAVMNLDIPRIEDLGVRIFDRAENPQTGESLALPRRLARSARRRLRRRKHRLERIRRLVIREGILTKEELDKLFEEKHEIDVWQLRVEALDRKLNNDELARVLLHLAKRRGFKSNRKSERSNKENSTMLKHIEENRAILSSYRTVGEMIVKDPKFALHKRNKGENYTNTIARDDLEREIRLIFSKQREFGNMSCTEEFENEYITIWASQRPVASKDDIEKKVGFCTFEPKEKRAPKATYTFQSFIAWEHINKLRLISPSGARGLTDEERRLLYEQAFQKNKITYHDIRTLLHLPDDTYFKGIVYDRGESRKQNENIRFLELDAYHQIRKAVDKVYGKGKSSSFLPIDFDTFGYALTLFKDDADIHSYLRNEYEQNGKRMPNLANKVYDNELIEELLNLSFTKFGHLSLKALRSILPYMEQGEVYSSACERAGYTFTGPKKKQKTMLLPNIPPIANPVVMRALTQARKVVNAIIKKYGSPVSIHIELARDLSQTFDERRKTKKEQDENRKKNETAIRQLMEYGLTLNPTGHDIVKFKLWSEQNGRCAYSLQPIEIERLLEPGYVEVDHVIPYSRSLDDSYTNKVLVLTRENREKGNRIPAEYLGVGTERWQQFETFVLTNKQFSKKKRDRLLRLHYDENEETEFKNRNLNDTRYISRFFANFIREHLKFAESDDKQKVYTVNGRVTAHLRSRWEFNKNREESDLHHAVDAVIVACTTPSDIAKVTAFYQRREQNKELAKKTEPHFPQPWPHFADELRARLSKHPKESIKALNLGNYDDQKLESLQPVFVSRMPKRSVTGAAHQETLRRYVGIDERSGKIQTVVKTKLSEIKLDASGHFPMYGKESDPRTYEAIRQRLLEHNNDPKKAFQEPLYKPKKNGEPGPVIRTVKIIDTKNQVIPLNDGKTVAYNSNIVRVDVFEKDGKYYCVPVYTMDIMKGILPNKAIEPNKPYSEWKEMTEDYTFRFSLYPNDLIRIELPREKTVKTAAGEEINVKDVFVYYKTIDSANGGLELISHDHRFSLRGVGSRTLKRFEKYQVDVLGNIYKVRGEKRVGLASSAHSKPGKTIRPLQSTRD
Assay: cleavage_in_vitro
Conditions: 21-22 nt spacer cleaves more than 5-fold faster than 20 nt; 37 C; exact substrate PAM not given

Question: “GeoCas9 sgRNA with 20 nt spacer ; radiolabeled target DNA with CRAA PAM” was tested. Which cleavage rate fold increase did it give?
Answer: Its cleavage rate fold increase is over 5 fold.
